From US20220275069

Test system: T1, Recombinant gasdermin D (rGSDMD), full-length
T1 sequence: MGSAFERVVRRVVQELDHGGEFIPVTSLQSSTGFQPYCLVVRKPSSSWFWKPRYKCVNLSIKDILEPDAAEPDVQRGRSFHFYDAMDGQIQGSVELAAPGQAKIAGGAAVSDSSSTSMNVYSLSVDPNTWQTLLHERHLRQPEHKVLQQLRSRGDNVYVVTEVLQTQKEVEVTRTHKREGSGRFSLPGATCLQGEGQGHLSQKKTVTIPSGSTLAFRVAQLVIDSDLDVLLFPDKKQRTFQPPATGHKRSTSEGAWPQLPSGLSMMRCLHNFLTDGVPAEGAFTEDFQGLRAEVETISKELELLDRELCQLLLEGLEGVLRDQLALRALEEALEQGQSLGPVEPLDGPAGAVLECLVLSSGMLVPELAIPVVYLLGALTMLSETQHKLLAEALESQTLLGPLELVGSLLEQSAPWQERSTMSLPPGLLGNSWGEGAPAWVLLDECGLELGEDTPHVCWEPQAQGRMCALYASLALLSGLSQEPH

## Recombinant caspase-1
  cleavage of recombinant gasdermin D (1 hour at 37 C, SDS-PAGE and protein stain): resulted in the formation of a ~31 kDa N-terminal domain and ~22 kDa C-terminal domain
